Tests used:
[1] = target: T1, bS1c, chloroplast ribosomal protein S1 (spinach (Spinacia oleracea) (endogenous …, UniProt P29344 42-411)); assay: cryo-EM structure
T1 sequence (looked up): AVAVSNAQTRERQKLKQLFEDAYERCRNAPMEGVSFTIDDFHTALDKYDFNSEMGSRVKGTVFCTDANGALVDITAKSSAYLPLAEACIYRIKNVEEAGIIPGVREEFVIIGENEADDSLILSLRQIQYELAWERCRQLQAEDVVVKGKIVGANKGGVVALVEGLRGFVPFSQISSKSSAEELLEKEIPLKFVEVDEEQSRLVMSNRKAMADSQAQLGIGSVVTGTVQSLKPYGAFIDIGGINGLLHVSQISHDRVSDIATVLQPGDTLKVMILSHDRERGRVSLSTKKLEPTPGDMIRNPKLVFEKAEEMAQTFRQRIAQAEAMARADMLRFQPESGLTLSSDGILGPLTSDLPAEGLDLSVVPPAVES

[2] = target: T2, uS13c, chloroplast ribosomal protein S13 (spinach (Spinacia oleracea) (endogenous …, UniProt P82163 48-172)); assay: cryo-EM structure
T2 sequence (looked up): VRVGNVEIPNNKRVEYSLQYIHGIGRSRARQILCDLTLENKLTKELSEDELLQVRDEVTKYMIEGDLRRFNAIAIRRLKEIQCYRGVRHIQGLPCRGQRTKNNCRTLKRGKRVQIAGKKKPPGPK

Row | Binder | binding result [1] | binding result [2]
1 | uS2c, chloroplast ribosomal protein S2 (natural protein, UniProt P08242 1-236, looked up) MTRRYWNINLEEMMEAGVHFGHGTRKWNPRMSPYISAKCKGIHIINLTRTARFLSEACDLVFDASSRGKQFLIVGTKNKAADSVARAAIRARCHYVNKKWLGGMLTNWSTTETRLHKFRDLRMEQTAGRLARLPKRDAAVVKRQLSHLQTYLGGIKYMTGLPDIVIIVDQQEEYTALRECITLGIPTICLIDTNCNPDLADISIPANDDAIASIRLILTKLVFAICEGRSSYIRNP | binds | –
2 | GRGDRKTAKGKRFNHSFGNARPKNKNKGRGPPKAPIFPKGDPSQKED (natural protein, UniProt P47910 55-101, looked up) [bTHXc (PSRP4), plastid-specific ribosomal protein of the chloroplast ribosome small subunit] | – | binds
